Data published in patent US20190387724A1.

Biological target: human/mouse chimeric PD-1 protein (humanized PD-1 of B-hPD-1 mice) (human/mouse chimeric)
Experiment: flow cytometry on T lymphocytes (CD3+) of F1 generation B-hPD-1 mice

Chain of human/mouse chimeric PD-1 protein (humanized PD-1 of B-hPD-1 mice) (human/mouse chimeric) (chain, as listed by the source mutant limits assumed): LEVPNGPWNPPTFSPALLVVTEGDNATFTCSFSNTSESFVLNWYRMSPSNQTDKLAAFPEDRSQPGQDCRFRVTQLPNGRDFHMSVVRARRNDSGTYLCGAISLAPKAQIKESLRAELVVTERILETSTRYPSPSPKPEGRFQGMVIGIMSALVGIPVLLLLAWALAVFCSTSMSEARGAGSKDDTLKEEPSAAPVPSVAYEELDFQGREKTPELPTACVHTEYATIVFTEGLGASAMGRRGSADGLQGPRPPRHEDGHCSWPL

## anti-human PD-1 antibody hPD-1 FITC (Biolegend, article number 329904)
  percent of double-positive cells (anti-human PD-1 and anti-mouse CD3): 92%
